Tested on: SinR (Bacillus subtilis)
Experiment: EMSA
Settings: EMSA: 15 mM Tris-Cl, 4 mM MOPS-KOH, 15 mM KCl, 50 mM NaCl, 0.8 mM MgCl2, 0.6 mM DTT, 12.5% glycerol, pH 7.8, 1 ug poly(dI-dC) in 16 ul, 20 fmol probe, 28 C …

## PkinB(-75/+10) delta5 G-45A
SinR-2 site (SinR-1 not bound)
  Kd: 10 nM

## PkinB(-75/-7) delta5 G-45A
SinR-2 site
  Kd: 10 nM

## Rm0 PkinB(-124/-38)
SinR-1 site
  Kd: 50 nM

## Fm0 PkinB(-39/+104)
SinR-2 site, binding stated (also given as >100 nM)
  Kd: > 400 nM

## PkinB(-75/+10) G-45A
SinR-1 site (upper band)
  binding signal (fold lower affinity): 2

## PkinB(-31/+104)
SinR-2 site, binding stated
  Kd: > 100 nM

## PkinB(-55/+10) WT
SinR-2 site, binding stated
  Kd: > 100 nM
